Source: paper PMC5349899

Legend:
[1] = target: TGF-β2 (in the calorimeter cell); assay: ITC; ER or RER (50-110 µM) in the syringe, TGF-β2 (5-8 µM) in the cell; 10 mM sodium phosphate pH 7.4, 30 mM CHAPS; 37°C; Microcal PEAQ-ITC
[2] = target: biotinylated avi-tagged TGF-β2 (human); assay: SPR; biotinylated avi-tagged TGF-β2 or TGF-β3 captured on streptavidin-coated CM5 chip at 50-80 RU; analytes injected as two-fold dilution series in HBS-EP at 100 µL/min (150 s); BIAcore 3000; global fit to a simple 1:1 model
[3] = target: biotinylated avi-tagged TGF-β3 (human); assay: as above

Substance | Kd [1] [nM] | stoichiometry N [1] [sites] | Kd [2] [nM] | koff [2] [s⁻¹] | kon [2] [M⁻¹ s⁻¹] | Kd [3] [nM] | koff [3] [s⁻¹] | kon [3] [M⁻¹ s⁻¹] | IC50 of inhibition of PAI-1 luciferase reporter activity in Mv1Lu mink lung epithelial cells induced with 20 pM TGF-β1 (TGF-β1) [pM] | reduction of Smad2 phosphorylation (Western blot) in MCF-10A cells stimulated with 2 pM TGF-β1 in the presence of 0, 0.01, 0.1, 1 and 10 nM ER (TGF-β1) [%]
ER receptor trap (betaglycan endoglin domain-TβRII; rat BG-human TβRII receptor fusion) (designed binder) | 215 | 1.05 | 1.44 | 0.000438 | 307000 | 0.0505 | 1.97e-05 | 391000 |  | 
RER receptor trap (TβRII-betaglycan endoglin domain-TβRII) (designed binder) | 128 | 1.1 |  | 0.000253 | 307000 | 0.0244 | 9.44e-06 | 387000 |  | 
betaglycan endoglin domain (BGE) (domain or fragment) |  |  | 30.6 | 0.00466 | 152000 | 94.6 | 0.0124 | 131000 |  | 
bivalent TGF-β receptor trap ER (BGE-RII) (from UniProt P37173 23-166) |  |  |  |  |  |  |  |  | 14 | 30
